Results reported in IntAct's records for PubMed 16000308.

B1: Melanoma-associated antigen D1 (Homo sapiens), Q9Y5V3 (parent)
chain: MAQKMDCGAGLLGFQAEASVEDSALLMQTLMEAIQISEAPPTNQATAAASPQSSQPPTANEMADIQVSAAAARPKSAFKVQNATTKGPNGVYDFSQAHNAKDVPNTQPKAAFKSQNATPKGPNAAYDFSQAATTGELAANKSEMAFKAQNATTKVGPNATYNFSQSLNANDLANSRPKTPFKAWNDTTKAPTADTQTQNVNQAKMATSQADIETDPGISEPDGATAQTSADGSQAQNLESRTIIRGKRTRKINNLNVEENSSGDQRRAPLAAGTWRSAPVPVTTQNPPGAPPNVLWQTPLAWQNPSGWQNQTARQTPPARQSPPARQTPPAWQNPVAWQNPVIWPNPVIWQNPVIWPNPIVWPGPVVWPNPLAWQNPPGWQTPPGWQTPPGWQGPPDWQGPPDWPLPPDWPLPPDWPLPTDWPLPPDWIPADWPIPPDWQNLRPSPNLRPSPNSRASQNPGAAQPRDVALLQERANKLVKYLMLKDYTKVPIKRSEMLRDIIREYTDVYPEIIERACFVLEKKFGIQLKEIDKEEHLYILISTPESLAGILGTTKDTPKLGLLLVILGVIFMNGNRASEAVLWEALRKMGLRPGVRHPLLGDLRKLLTYEFVKQKYLDYRRVPNSNPPEYEFLWGLRSYHETSKMKVLRFIAEVQKRDPRDWTAQFMEAADEALDALDAAAAEAEARAEARTRMGIGDEAVSGPWSWDDIEFELLTWDEEGDFGDPWSRIPFTFWARYHQNARSRFPQTFAGPIIGPGGTASANFAANFGAIGFFWVE
partner: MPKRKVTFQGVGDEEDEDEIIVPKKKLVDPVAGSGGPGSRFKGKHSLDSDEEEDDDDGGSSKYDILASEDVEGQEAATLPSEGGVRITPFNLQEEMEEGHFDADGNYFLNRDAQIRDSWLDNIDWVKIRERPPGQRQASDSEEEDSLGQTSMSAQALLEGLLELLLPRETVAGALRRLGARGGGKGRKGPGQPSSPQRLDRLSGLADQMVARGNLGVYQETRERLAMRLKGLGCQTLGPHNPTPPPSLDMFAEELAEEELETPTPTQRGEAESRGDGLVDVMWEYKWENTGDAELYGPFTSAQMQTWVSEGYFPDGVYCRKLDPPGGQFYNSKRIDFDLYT

Variants of: B1
Conditions: with cd2b2_human CD2BP2, O95400

Effect of a mutation on the interaction, by site and new letter:
G379: D decreasing interaction strength; C decreasing interaction strength; A decreasing interaction strength; E decreasing interaction strength; W decreasing interaction strength
P383: L disrupting interaction strength; F disrupting interaction strength; M disrupting interaction strength; Y disrupting interaction strength; N disrupting interaction strength; A disrupting interaction strength; W disrupting interaction strength; C disrupting interaction strength; G disrupting interaction strength; Q disrupting interaction strength; V disrupting interaction strength; S disrupting interaction strength; D disrupting interaction strength; E disrupting interaction strength; K disrupting interaction strength; H disrupting interaction strength; T disrupting interaction strength; I disrupting interaction strength; R disrupting interaction strength
P378: H decreasing interaction strength; W decreasing interaction strength; G decreasing interaction strength; E decreasing interaction strength; M decreasing interaction strength; D decreasing interaction strength; A decreasing interaction strength; C decreasing interaction strength
Q381: D decreasing interaction strength; Y decreasing interaction strength; E decreasing interaction strength; C decreasing interaction strength
P384: Q disrupting interaction strength; S disrupting interaction strength; H disrupting interaction strength; T disrupting interaction strength; G disrupting interaction strength; L disrupting interaction strength; I disrupting interaction strength; R disrupting interaction strength; C disrupting interaction strength; F disrupting interaction strength; E disrupting interaction strength; K disrupting interaction strength; N disrupting interaction strength; D disrupting interaction strength; M disrupting interaction strength; V disrupting interaction strength; A disrupting interaction strength
T382: M decreasing interaction strength; C disrupting interaction strength; D disrupting interaction strength; L disrupting interaction strength; N decreasing interaction strength; E disrupting interaction strength
W380: A decreasing interaction strength; E disrupting interaction strength; D decreasing interaction strength
